B1: SLC25A39 (parent)
chain: LTSDLYAPMVAGALARLGTVTVIS
B2: KLHL12 (parent)
chain: LDYTADEDGVWYSVAPMNVRRGLA

Variants of: B1
Assay: protein stability index of a GFP-peptide fusion (GPS, HEK-293T) (PSI 1-6); higher = more stable
Details: c terminus: a fixed tail appended
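Note: lentivirally expressed fusions sorted by FACS into six bins by GFP to DsRed ratio, PSI derived from sequencing read proportions per bin multiplied by bin number.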

| Variant | protein stability index |
| --- | --- |
| LTSWLYAPMVAGALARLGTVTVIS [D4W] | 3.9 |
| LTSCLYAPMVAGALARLGTVTVIS [D4C] | 4.74 |
| LTSRLYAPMVAGALARLGTVTVIS [D4R] | 3.25 |
| LTSSLYAPMVAGALARLGTVTVIS [D4S] | 2.07 |
| LTSPLYAPMVAGALARLGTVTVIS [D4P] | 2.89 |
| LTSQLYAPMVAGALARLGTVTVIS [D4Q] | 2.88 |
| LTSTLYAPMVAGALARLGTVTVIS [D4T] | 2.84 |
| LTSVLYAPMVAGALARLGTVTVIS [D4V] | 3.22 |
| LASDLYAPMVAGALARLGTVTVIS [T2A] | 3.92 |
| LCSDLYAPMVAGALARLGTVTVIS [T2C] | 4.26 |
| LHSDLYAPMVAGALARLGTVTVIS [T2H] | 2.88 |
| LSSDLYAPMVAGALARLGTVTVIS [T2S] | 2.68 |
| LNSDLYAPMVAGALARLGTVTVIS [T2N] | 2.52 |
| LQSDLYAPMVAGALARLGTVTVIS [T2Q] | 2.49 |
| LKSDLYAPMVAGALARLGTVTVIS [T2K] | 1.57 |
| LDSDLYAPMVAGALARLGTVTVIS [T2D] | 2.1 |
| LWSDLYAPMVAGALARLGTVTVIS [T2W] | 1.61 |
| LYSDLYAPMVAGALARLGTVTVIS [T2Y] | 4.43 |
| LGSDLYAPMVAGALARLGTVTVIS [T2G] | 3.56 |
| LESDLYAPMVAGALARLGTVTVIS [T2E] | 2.15 |
| LMSDLYAPMVAGALARLGTVTVIS [T2M] | 3.56 |
| GTSDLYAPMVAGALARLGTVTVIS [L1G] | 2.72 |
| TTSDLYAPMVAGALARLGTVTVIS [L1T] | 1.75 |
| ETSDLYAPMVAGALARLGTVTVIS [L1E] | 2.24 |
| MTSDLYAPMVAGALARLGTVTVIS [L1M] | 2.2 |
| STSDLYAPMVAGALARLGTVTVIS [L1S] | 1.41 |

| Variant | protein stability index |
| --- | --- |
| KTSDLYAPMVAGALARLGTVTVIS [L1K] | 2.83 |
| ITSDLYAPMVAGALARLGTVTVIS [L1I] | 1.96 |
| ATSDLYAPMVAGALARLGTVTVIS [L1A] | 3.53 |
| NTSDLYAPMVAGALARLGTVTVIS [L1N] | 2.77 |
| QTSDLYAPMVAGALARLGTVTVIS [L1Q] | 1.84 |
| HTSDLYAPMVAGALARLGTVTVIS [L1H] | 2.01 |
| PTSDLYAPMVAGALARLGTVTVIS [L1P] | 1.62 |
| DTSDLYAPMVAGALARLGTVTVIS [L1D] | 1.76 |
| CTSDLYAPMVAGALARLGTVTVIS [L1C] | 2.18 |
| VTSDLYAPMVAGALARLGTVTVIS [L1V] | 1.88 |
| LTYDLYAPMVAGALARLGTVTVIS [S3Y] | 2.41 |
| LTRDLYAPMVAGALARLGTVTVIS [S3R] | 2.83 |
| LTMDLYAPMVAGALARLGTVTVIS [S3M] | 2.73 |
| LTQDLYAPMVAGALARLGTVTVIS [S3Q] | 1.86 |
| LTFDLYAPMVAGALARLGTVTVIS [S3F] | 3.67 |
| LTGDLYAPMVAGALARLGTVTVIS [S3G] | 3.59 |
| LTTDLYAPMVAGALARLGTVTVIS [S3T] | 1.38 |
| LTNDLYAPMVAGALARLGTVTVIS [S3N] | 1.56 |
| LTADLYAPMVAGALARLGTVTVIS [S3A] | 2.75 |
| LTIDLYAPMVAGALARLGTVTVIS [S3I] | 2.51 |
| LTLDLYAPMVAGALARLGTVTVIS [S3L] | 3.13 |
| LTKDLYAPMVAGALARLGTVTVIS [S3K] | 1.13 |
| LTVDLYAPMVAGALARLGTVTVIS [S3V] | 3.21 |
| LTHDLYAPMVAGALARLGTVTVIS [S3H] | 2.4 |
| LTDDLYAPMVAGALARLGTVTVIS [S3D] | 2.96 |
| LTPDLYAPMVAGALARLGTVTVIS [S3P] | 1.35 |

Variants of: B2
Assay: as above
Details: c terminus: a fixed tail appended

| Variant | protein stability index |
| --- | --- |
| LDYTADEDGVWYSVAPMNVRRGEA [L23E] | 2.41 |
| LDYTADEDGVWYSVAPMNVRRGYA [L23Y] | 1.99 |
| LDYTADEDGVWYSVAPMNVRRGSA [L23S] | 2.66 |
| LDYTADEDGVWYSVAPMNVRRGRA [L23R] | 2.82 |
| LDYTADEDGVWYSVAPMNVRRGHA [L23H] | 2.28 |
| LDYTADEDGVWYSVAPMNVRRGDA [L23D] | 2.46 |
| LDYTADEDGVWYSVAPMNVRRGNA [L23N] | 2.77 |
| LDYTADEDGVWYSVAPMNVRRGVA [L23V] | 1.79 |
| LDYTADEDGVWYSVAPMNVRRGAA [L23A] | 2.68 |
| LDYTADEDGVWYSVAPMNVRRGIA [L23I] | 1.74 |
| LDYTADEDGVWYSVAPMNVRRGTA [L23T] | 2.19 |
| LDYTADEDGVWYSVAPMNVRRGCA [L23C] | 1.93 |
| LDYTADEDGVWYSVAPMNVRRGQA [L23Q] | 2.9 |
| LDYTADEDGVWYSVAPMNVRRGKA [L23K] | 2 |
| LDYTADEDGVWYSVAPMNVRRGPA [L23P] | 2.35 |
| LDYTADEDGVWYSVAPMNVRRGGA [L23G] | 2.29 |
| LDYTADEDGVWYSVAPMNVRRGWA [L23W] | 1.37 |
| LDYTADEDGVWYSVAPMNVRRGMA [L23M] | 2.38 |
| LDYTADEDGVWYSVAPMNVRRGFA [L23F] | 1.83 |
| LDYTADEDGVWYSVAPMNVRRWLA [G22W] | 1.48 |
| LDYTADEDGVWYSVAPMNVRRVLA [G22V] | 1.35 |

| Variant | protein stability index |
| --- | --- |
| LDYTADEDGVWYSVAPMNVRRYLA [G22Y] | 2.17 |
| LDYTADEDGVWYSVAPMNVRRTLA [G22T] | 2.31 |
| LDYTADEDGVWYSVAPMNVRRGLT [A24T] | 2.11 |
| LDYTADEDGVWYSVAPMNVRRGLG [A24G] | 2.17 |
| LDYTADEDGVWYSVAPMNVRRGLP [A24P] | 2.24 |
| LDYTADEDGVWYSVAPMNVRRGLN [A24N] | 2.25 |
| LDYTADEDGVWYSVAPMNVRRGLD [A24D] | 1.82 |
| LDYTADEDGVWYSVAPMNVRRGLY [A24Y] | 2.39 |
| LDYTADEDGVWYSVAPMNVRRGLH [A24H] | 2.13 |
| LDYTADEDGVWYSVAPMNVRRGLS [A24S] | 2.17 |
| LDYTADEDGVWYSVAPMNVRRGLQ [A24Q] | 2.03 |
| LDYTADEDGVWYSVAPMNVRRGLF [A24F] | 2.2 |
| LDYTADEDGVWYSVAPMNVRRGLL [A24L] | 2.77 |
| LDYTADEDGVWYSVAPMNVRRGLV [A24V] | 2.26 |
| LDYTADEDGVWYSVAPMNVRRGLR [A24R] | 1.97 |
| LDYTADEDGVWYSVAPMNVRRGLM [A24M] | 1.75 |
| LDYTADEDGVWYSVAPMNVRRGLW [A24W] | 2.46 |
| LDYTADEDGVWYSVAPMNVRRGLK [A24K] | 2.35 |
| LDYTADEDGVWYSVAPMNVRRGLE [A24E] | 1.87 |
| LDYTADEDGVWYSVAPMNVRRGLI [A24I] | 1.88 |
| LDYTADEDGVWYSVAPMNVRRGLC [A24C] | 1.77 |
